The source of these data is patent US20190077858A1 (KM BIOLOGICS, published 2019).

For experiment [1], the target named is T1, human IL-1β (Funakoshi Corp.) (human, UniProt P01584 117-269, biotinylated (Biotin-PEAC5-maleimide or Biotin-AC5 Sulfo-OSu)).
T1 construct: also called biotinylated human IL-1β
Description: ELISA on biotinylated cytokine on streptavidin plates. (An ELISA detects its analyte on a solid surface through an enzyme-linked reagent.)

Experiment [2] addresses T2, human IL-33 (MBL Medical & Biological Laboratories, Co., Ltd.) (human, UniProt O95760 112-270, limits assumed, biotinylated (Biotin-PEAC5-maleimide or Biotin-AC5 Sulfo-OSu)).
T2 construct: also called biotinylated human IL-33
T2 sequence (looked up): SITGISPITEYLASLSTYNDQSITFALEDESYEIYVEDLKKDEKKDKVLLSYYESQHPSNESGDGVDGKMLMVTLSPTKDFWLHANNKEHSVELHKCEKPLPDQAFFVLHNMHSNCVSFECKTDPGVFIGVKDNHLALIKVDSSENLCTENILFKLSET
The description is as above.

For experiment [3], the target named is T3, rat IL-18 (Acris Antibodies GmbH) (rat, UniProt P97636 37-194, limits assumed, biotinylated (Biotin-PEAC5-maleimide or Biotin-AC5 Sulfo-OSu)).
T3 construct: also called biotinylated rat IL-18
T3 sequence (looked up): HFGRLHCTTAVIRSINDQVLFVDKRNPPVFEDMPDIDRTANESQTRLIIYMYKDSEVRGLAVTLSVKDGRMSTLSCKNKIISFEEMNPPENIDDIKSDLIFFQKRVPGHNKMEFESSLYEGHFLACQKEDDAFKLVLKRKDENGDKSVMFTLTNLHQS
Described as above.

Experiment [4] concerns the target T4, mouse IL-18 (MBL Medical & Biological Laboratories, Co., Ltd.) (mouse, UniProt P70380 36-192, biotinylated (Biotin-PEAC5-maleimide or Biotin-AC5 Sulfo-OSu)).
T4 construct: also called biotinylated mouse IL-18
T4 sequence (looked up): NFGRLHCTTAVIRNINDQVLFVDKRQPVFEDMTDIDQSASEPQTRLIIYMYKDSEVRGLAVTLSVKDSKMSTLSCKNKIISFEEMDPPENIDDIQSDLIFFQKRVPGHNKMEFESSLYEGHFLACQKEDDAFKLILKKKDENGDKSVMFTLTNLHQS
The description is as above.

The target of experiment [5] is T5, human IL-18 (MBL Medical & Biological Laboratories, Co., Ltd.) (human, UniProt Q14116 37-193, biotinylated (Biotin-PEAC5-maleimide or Biotin-AC5 Sulfo-OSu) in the streptavidin plate ELISAs and the panning; not labelled in the receptor binding and KG-1 assays).
T5 construct: Bought protein; also called human interleukin-18; biotinylated human IL-18
T5 sequence (looked up): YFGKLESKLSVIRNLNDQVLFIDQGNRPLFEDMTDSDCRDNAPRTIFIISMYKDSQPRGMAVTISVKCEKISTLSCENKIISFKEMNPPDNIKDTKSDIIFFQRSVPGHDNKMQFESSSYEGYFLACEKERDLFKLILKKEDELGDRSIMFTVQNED
Description: flow cytometry, blocking: human IL-18 100 ng/mL pre-mixed with the antibody, added to KG-1 cells, bound IL-18 detected with biotinylated 125-2H and streptavidin-PE; blocked partner: native IL-18 receptor [b]. Here is the method:
Human IL-18 (MBL Medical & Biological Laboratories, Co., Ltd.) was diluted to 100 ng/mL with 1% BSA-PBS-0.05% NaN₃-2% rabbit serum, mixed with the obtained anti-IL-18 antibody, and incubated at room temperature for 60 minutes. Then, the human IL-18/anti-IL-18 antibody mixed solution was added to KG-1 cells (1×10⁵ cells) cultured by a standard technique (e.g., a medium in which an RPMI1640 medium was supplemented with 10% bovine serum, 2 mM L-glutamine, 50 U/mL penicillin, and 50 μg/mL streptomycin), and reacted on ice. After 30 minutes, the supernatant was removed by centrifugation (1200 rpm, 3 min, 4° C.), and a biotinylated anti-IL-18 antibody 125-2H (MBL Medical & Biological Laboratories, Co., Ltd.) not inhibiting the binding between IL-18 and IL-18 receptor was added thereto and reacted on ice. After 30 minutes, the supernatant was removed by centrifugation (1200 rpm, 3 min, 4° C.), and streptavidin-PE (BD Becton, Dickinson and Company) was added thereto and reacted on ice for 30 minutes. After the reaction, the supernatant was removed by centrifugation (1200 rpm, 3 min, 4° C.), and the KG-1 cells were floated with 1% BSA-PBS-0.05% NaN₃-2% rabbit serum. The fluorescence intensity in the reacted KG-1 cells was measured using FACScan (BD Becton, Dickinson and Company).
Background: Flow cytometry measures light scatter and fluorescence of single cells or particles in a stream.

B1: IgG molecule-type 4A6D (antibody, V domains shown)
VH: EVQLVESGGGLVQPGGSMRLSCTASGFTFDEYAMSWVRQAPGKGLEWVSGISTGGGGTYYADSVEGRFTISRDNSKNTLYLQMNSLRAEDTAVYYCAKPWLSGSRSGDFWGQGTLVTVSS
VL: QSALTQPASVSGSPGQSITISCTGTSSDVGGYNYVSWYQQHPGKAPKLLIYEVSHRPSGVSDRFSGSKSGNTASLTISGLQAEDEADYYCSSFTSSSSLYVFGTGTKLTVL
notes: detected with anti-hFc, so human constant regions; also called human anti-human IL-18 antibody 4A6D
As to B1, the binding result in experiment [1], in experiment [2], in experiment [3] and in experiment [4] was “no binding” throughout. For the same molecule, the “IC50 (read off the curve)” value in experiment [5] is about 0.2 µg/mL.
